Source: US8715676B2, “Production and uses of type I ribosome inactivating proteins” (priority 2008, dated 2014)
Read-outs that look alike come from different tables or passages of the source.

Experiments:
[1] = test system: BT 474 human breast cancer cells; assay: Cytotoxicity in cancer cells in vitro (TOX8 viability, 72 h); assay type: cell-based; settings: TB474 (BT 474) cells
Experimental: (§1) Human breast cancer cells, MDA 231 and BT 474, were grown in tissue culture to assay for the concentration at which 50% of the cells are inhibited from growing (IC50). The cells were seeded in 96-well plates at 5000 cells per well and grown overnight in RPMI 1640 supplemented with 10% fetal bovine serum and 15 μg/ml insulin. The culture medium was replaced. The recombinant cucurmosin, natural cucurmosin and vinblastine were added to the cells at various concentrations. Likewise, the non-cancer cells, LO2 and lymphocytes were treated with these drugs at different concentrations. The cells were grown for an additional 72 hours and then 20 μl of TOX8 was added to each well. The cells were incubated another 8 hours at 37° C., 5% CO2 to allow time for the cells to metabolize the TOX8 indicator. Absorbance readings at 600 nm were taken of each well. Viability was indicated by a drop in absorbance at 600 nm readings.

[2] = test system: MDA 231 human breast cancer cells; assay: as above; assay type: cell-based
Experimental: as §1

[3] = test system: LO2 non-cancer cells; assay: Cytotoxicity in non-cancer cells in vitro (TOX8 viability, 72 h); assay type: cell-based
Experimental: as §1

[4] = test system: lymphocytes (non-cancer cells); assay: as above; assay type: cell-based
Experimental: as §1

[5] = test system: HMEL tumors; assay: Treating HMEL tumors in mice, intratumoral injection; assay type: in vivo, NOD/SCID mice; settings: for Tumor growth: over 18 days
Experimental: (§2) Human lung cancer cells, […] or A549, were used to induce tumor formation in backs of NOD/SCID mice (JAX, #001303). The cells were maintained in culture. In each experiment, 5 million cells were injected into the back of the mice. Tumors formed in 2 to 3 weeks. Tumor sizes were measured using a digital caliper and then areas calculated.
(§3) In one experiment, either 5 or 50 μg recombinant cucurmosin was injected into the HMEL tumors in 100 μl of saline solution on the days that the tumors were measured. Mouse 2 had tumors in both sides of its back which were each treated separately. Over the 18 day period, the mouse injected with no cucurmosin saw its tumor increase 267% (TABLE 2). […] Mouse 1 and 3 with HMEL tumors after 18 days intratumoral treatment (Table 2), were continually administered recombinant cucurmosin by tail vein injection using 50 μg of recombinant cucurmosin in 100 μl saline solution at day 0 (the same day as day 18 of intratumoral treatment) and day 5. […] The results of these tests are depicted in FIG. 1.

[6] = test system: HMEL tumors; assay: Treating HMEL tumors in mice by tail vein injection; assay type: in vivo, NOD/SCID mice
Experimental: as §2, §3

[7] = test system: A549 tumors; assay: Treating A549 tumors in mice, intratumoral injection; assay type: in vivo, NOD/SCID mice; settings: for Tumor growth: Day 1 to Day 11
Experimental: as §2
In another group of mice, carrying tumors derived from A549 cells, 5 or 50 μg treatments of directly injected recombinant cucurmosin into the tumors was able to reduce tumors by 15 and 33%, respectively while the negative control saw the tumor grow 150% (TABLE 3).

Molecule `CC[C@]1(O)C[C@@H]2CN(CCc3c([nH]c4ccccc34)[C@@](C(=O)OC)(c3cc4c(cc3OC)N(C)[C@H]3[C@@](O)(C(=O)OC)[C@H](OC(C)=O)[C@]5(CC)C=CCN6CC[C@]43[C@@H]65)C2)C1` [Vinblastine, reference compound] has an IC50 ([1]; Homo sapiens) of 0.026 µM, an IC50 ([2]; Homo sapiens, MDA-MB-231, MDA231 cells) of 0.025 µM and an IC50 [3] of 0.068 µM. For the same molecule, the IC50 ([4]; Lymphocyte) was 0.073 µM.

B1: Recombinant Cucurmosin: 297 amino acid pro-cucurmosin (SEQ ID 4), type 1 ribosome inactivating protein expressed in E. coli with C-terminal histidine tag (protein, listed as Cucurbita moschata)
chain: MNVRFDLSSATSSSYKTFIKNLREALPKDGKVYDIPVLLSTVMDSRRFILIDLVNYDGQSITAAIDVLNVYIVAYSTGTVSYFFQQVPAQAPKLLFKGTQQRTLPYTGNYENLQTAAKKLRENIELGLPALDSAITTLFHYNAEAAASALLVLIQTTSEAARFRYIELQIANNVGTKFKPSQTIISLENNWSALSKQIQIAKNKNGQFETPVILIDPQGNRVQITNVTSNVVTQNIKLLLNIGATVDTMAANDDVDEMTSGVPIRLSSCGHEMERKSVENGRHANYVSVLEHHHHHH
modifications: C-terminal His tag
B1 gave an IC50 [1] of 0.022 µM, an IC50 ([1]; listed as recombinant cucurmosin) greater than 0.02 µM and an IC50 ([2]; MDA231 cells) of 0.023 µM. For the same molecule, the IC50 ([2]; MDA231 cells, listed as recombinant cucurmosin) was greater than 0.02 µM, the IC50 [3] was 1.2 µM and the IC50 [4] was 2.5 µM. The Side-effects in mice ([5]; 5 or 50 μg intratumoral, 18 days) was “did not suffer any noticeable side-effects”, the “Tumor Size” value ([5]; Mouse 2 left, 5 μg intratumoral, Day 1) was 39.4 mm^2 and the “Tumor Size” value ([5]; Mouse 2 left, 5 μg intratumoral, Day 3) was 33 mm^2. The “Tumor Size” value ([5]; Mouse 2 left, 5 μg intratumoral, Day 5) was 23 mm^2, the “Tumor Size” value ([5]; Mouse 2 left, 5 μg intratumoral, Day 8) was 19.7 mm^2 and the “Tumor Size” value ([5]; Mouse 2 left, 5 μg intratumoral, Day 15) was 12.5 mm^2. The “Tumor Size” value ([5]; Mouse 2 left, 5 μg intratumoral, Day 18) was 0 mm^2, the Tumor growth ([5]; Mouse 2 left, 5 μg intratumoral) was −100% and the “Tumor Size” value ([5]; Mouse 2 right, 5 μg intratumoral, Day 1) was 27.8 mm^2. For the same molecule, the “Tumor Size” value ([5]; Mouse 2 right, 5 μg intratumoral, Day 3) was 24.8 mm^2, the “Tumor Size” value ([5]; Mouse 2 right, 5 μg intratumoral, Day 5) was 18.5 mm^2 and the “Tumor Size” value ([5]; Mouse 2 right, 5 μg intratumoral, Day 8) was 12.2 mm^2. The “Tumor Size” value ([5]; Mouse 2 right, 5 μg intratumoral, Day 15) was 0 mm^2, the “Tumor Size” value ([5]; Mouse 2 right, 5 μg intratumoral, Day 18) was 0 mm^2 and the Tumor growth ([5]; Mouse 2 right, 5 μg intratumoral) was −100%. The “Effect on tumor growth compared to the negative control” value ([5]; Mouse 3 (largest tumor), 5 μg intratumoral) was “slow the tumor growth compared to the negative control”, the “Tumor Size” value ([5]; Mouse 3, 5 μg intratumoral, Day 1) was 162.2 mm^2 and the “Tumor Size” value ([5]; Mouse 3, 5 μg intratumoral, Day 3) was 158 mm^2. The “Tumor Size” value ([5]; Mouse 3, 5 μg intratumoral, Day 5) was 151.8 mm^2, the “Tumor Size” value ([5]; Mouse 3, 5 μg intratumoral, Day 8) was 186.7 mm^2 and the “Tumor Size” value ([5]; Mouse 3, 5 μg intratumoral, Day 15) was 206.7 mm^2. For the same molecule, the “Tumor Size” value ([5]; Mouse 3, 5 μg intratumoral, Day 18) was 231.2 mm^2, the Tumor growth ([5]; Mouse 3, 5 μg intratumoral) was 43% and the “Tumor Size” value ([5]; Mouse 4, 50 μg intratumoral, Day 1) was 23.9 mm^2. For the same molecule, the “Tumor Size” value ([5]; Mouse 4, 50 μg intratumoral, Day 3) was 12.2 mm^2, the “Tumor Size” value ([5]; Mouse 4, 50 μg intratumoral, Day 5) was 9.4 mm^2 and the “Tumor Size” value ([5]; Mouse 4, 50 μg intratumoral, Day 8) was 0 mm^2. For the same molecule, the “Tumor Size” value ([5]; Mouse 4, 50 μg intratumoral, Day 15) was 0 mm^2, the “Tumor Size” value ([5]; Mouse 4, 50 μg intratumoral, Day 18) was 0 mm^2 and the Tumor growth ([5]; Mouse 4, 50 μg intratumoral) was −100%. The “Effect on tumors smaller than 40 mm^2” value ([5]; either 5 or 50 μg intratumoral, 18 day period) was “completely abrogated”, the “Toxic effects on the mice” value ([6]; 50 μg tail vein injection) was “no obvious toxic effects” and the Tumor size increase ([6]; Mouse 3, 50 μg tail vein at day 0 and day 5, seven days after initial injection) was 7%. For the same molecule, the Tumor reduction ([7]; 5 μg directly injected into the tumors) was 15%, the Tumor reduction ([7]; 50 μg directly injected into the tumors) was 33% and the “Tumor Size” value ([7]; Mouse 2, 5 μg intratumoral, Day 1) was 34.7 mm^2. The Tumor growth ([7]; Mouse 2, 5 μg intratumoral) was −15%, the “Tumor Size” value ([7]; Mouse 2, 5 μg intratumoral, Day 3) was 38.8 mm^2 and the “Tumor Size” value ([7]; Mouse 2, 5 μg intratumoral, Day 5) was 42.4 mm^2. For the same molecule, the “Tumor Size” value ([7]; Mouse 2, 5 μg intratumoral, Day 7) was 40.8 mm^2, the “Tumor Size” value ([7]; Mouse 2, 5 μg intratumoral, Day 9) was 39.5 mm^2 and the “Tumor Size” value ([7]; Mouse 2, 5 μg intratumoral, Day 11) was 29.5 mm^2. The “Tumor Size” value ([7]; Mouse 3, 50 μg intratumoral, Day 1) was 100.6 mm^2, the Tumor growth ([7]; Mouse 3, 50 μg intratumoral) was −33% and the “Tumor Size” value ([7]; Mouse 3, 50 μg intratumoral, Day 3) was 104.1 mm^2. For the same molecule, the “Tumor Size” value ([7]; Mouse 3, 50 μg intratumoral, Day 5) was 108.6 mm^2, the “Tumor Size” value ([7]; Mouse 3, 50 μg intratumoral, Day 7) was 113.1 mm^2 and the “Tumor Size” value ([7]; Mouse 3, 50 μg intratumoral, Day 9) was 78.8 mm^2. For the same molecule, the “Tumor Size” value ([7]; Mouse 3, 50 μg intratumoral, Day 11) was 67.3 mm^2.
